Results: the supplement of paper PMC10567573

B1: ANKRD17 (parent)
chain: EMVRFLLEAGADQEHKTDEMHTAL

Variants of: B1
Experiment: protein stability index of a GFP-peptide fusion (GPS, HEK-293T) (PSI 1-6); higher = more stable
Settings: c terminus: a fixed tail appended
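Note: lentivirally expressed fusions sorted by FACS into six bins by GFP to DsRed ratio, PSI derived from sequencing read proportions per bin multiplied by bin number.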

Row | Variant | protein stability index
1 | EMVRFLLEAGALQEHKTDEMHTAL | 1.09
2 | EMVRFLLEAGAQQEHKTDEMHTAL | 2.66
3 | EMVRFLLEAGAKQEHKTDEMHTAL | 2.69
4 | EMVRFLLEAGADQEHKQDEMHTAL | 2.54
5 | EMVRFLLEAGADQEHKMDEMHTAL | 2.71
6 | EMVRFLLEAGADQEHKFDEMHTAL | 2.15
7 | EMVRFLLEAGADQEHKYDEMHTAL | 2.33
8 | EMVRFLLEAGADQEHKTDEMHTAW | 2.68
9 | EMVRFLLEAGADQEHKTDWMHTAL | 1.43
10 | EMVRFLLEAGADQEHKTDFMHTAL | 1.97
11 | EMVRFLLEAGADQEHKTDNMHTAL | 3.27
12 | EMVRFLLEAGADQEHKTDHMHTAL | 2.22
13 | EMVRFLLEAGADQRHKTDEMHTAL | 1.95
14 | EMVRFLLEAGADQAHKTDEMHTAL | 1.69
15 | EMVRFLLEAGADQFHKTDEMHTAL | 1.9
16 | EMVRFLLEAGADQQHKTDEMHTAL | 2.46
17 | EMVRFLLEAGADQEHKTREMHTAL | 2.1
18 | EMVRFLLEAGADQEHKTCEMHTAL | 2.01
19 | EMVRFLLEAGADQEHKTWEMHTAL | 2.44
20 | EMVRFLLEAGADQEHKTQEMHTAL | 2.67
21 | EMVRFLLEAGADQEHKTAEMHTAL | 2.31
22 | EMVRFLLEAGADQEHKTYEMHTAL | 1.44
23 | EMVRFLLEAGADQEIKTDEMHTAL | 2.56
24 | EMVRFLLEAGADQEMKTDEMHTAL | 2.42

Row | Variant | protein stability index
25 | EMVRFLLEAGADQERKTDEMHTAL | 2.44
26 | EMVRFLLEAGADQENKTDEMHTAL | 3.21
27 | EMVRFLLEAGADQEVKTDEMHTAL | 2.69
28 | EMVRKLLEAGADQEHKTDEMHTAL | 4.33
29 | EMVRCLLEAGADQEHKTDEMHTAL | 3.77
30 | EMVRNLLEAGADQEHKTDEMHTAL | 4.29
31 | EMVRFLLEDGADQEHKTDEMHTAL | 3.09
32 | EMVRFLLEIGADQEHKTDEMHTAL | 1.98
33 | EMVRFLLEMGADQEHKTDEMHTAL | 2.22
34 | EMVRFLLEQGADQEHKTDEMHTAL | 2.78
35 | EMVRFLLEPGADQEHKTDEMHTAL | 3.08
36 | EMVRFLLEAGADQEHKTDECHTAL | 2.48
37 | EMVRFLLEAGADQEHKTDEIHTAL | 2.36
38 | EMVRFLLEAGADQEHKTDERHTAL | 3.5
39 | EMVRFLLEADADQEHKTDEMHTAL | 3.13
40 | EMVRFLLEAMADQEHKTDEMHTAL | 2.05
41 | EMVRFGLEAGADQEHKTDEMHTAL | 4.95
42 | EMVRFTLEAGADQEHKTDEMHTAL | 4.62
43 | EMVRFMLEAGADQEHKTDEMHTAL | 3.75
44 | EMVRFILEAGADQEHKTDEMHTAL | 2.63
45 | EMVRFKLEAGADQEHKTDEMHTAL | 4.7
46 | EMVRFLIEAGADQEHKTDEMHTAL | 3.31
47 | EMVRFLCEAGADQEHKTDEMHTAL | 3.56
48 | EMVTFLLEAGADQEHKTDEMHTAL | 3.22

Row | Variant | protein stability index
49 | EMVIFLLEAGADQEHKTDEMHTAL | 2.19
50 | ELVRFLLEAGADQEHKTDEMHTAL | 1.95
51 | ETVRFLLEAGADQEHKTDEMHTAL | 4.4
52 | ESVRFLLEAGADQEHKTDEMHTAL | 4.63
53 | EVVRFLLEAGADQEHKTDEMHTAL | 2.73
54 | EGVRFLLEAGADQEHKTDEMHTAL | 4.74
55 | EMVRFLLEAGHDQEHKTDEMHTAL | 3.22
56 | EMVRFLLEAGGDQEHKTDEMHTAL | 3.45
57 | EMVRFLLEAGQDQEHKTDEMHTAL | 2.58
58 | EMVRFLLEAGVDQEHKTDEMHTAL | 2.94
59 | EMVRFLLEAGPDQEHKTDEMHTAL | 3.73
60 | EMVRFLLEAGTDQEHKTDEMHTAL | 3.53
61 | EMVRFLLEAGMDQEHKTDEMHTAL | 1.87
62 | EMVRFLLEAGSDQEHKTDEMHTAL | 3.1
63 | EMVRFLLEAGADQEHKTDEMHNAL | 2.86
64 | EMVRFLLEAGADQEHKTDEMHVAL | 2.46
65 | EMVRFLLEAGADQEHKTDEMHCAL | 2.2
66 | EMVRFLLEAGADQEHKTDEMHAAL | 2.77
67 | EMVRFLLEAGADQEHKTDEMHLAL | 3.45
68 | EMVRFLLEAGADQEHKTDEMHTIL | 2.97
69 | EMVRFLLTAGADQEHKTDEMHTAL | 2.63
70 | EMVRFLLDAGADQEHKTDEMHTAL | 2.72
71 | EMVRFLLMAGADQEHKTDEMHTAL | 2.62
72 | EMLRFLLEAGADQEHKTDEMHTAL | 2.62

Row | Variant | protein stability index
73 | EMGRFLLEAGADQEHKTDEMHTAL | 4.81
74 | EMFRFLLEAGADQEHKTDEMHTAL | 2.97
75 | EMARFLLEAGADQEHKTDEMHTAL | 4.03
76 | EMVRFLLEAGADNEHKTDEMHTAL | 2.86
77 | EMVRFLLEAGADMEHKTDEMHTAL | 2.25
78 | EMVRFLLEAGADQEHCTDEMHTAL | 2.56
79 | EMVRFLLEAGADQEHWTDEMHTAL | 1.88
80 | EMVRFLLEAGADQEHSTDEMHTAL | 2.91
81 | EMVRFLLEAGADQEHNTDEMHTAL | 3.29
82 | EMVRFLLEAGADQEHETDEMHTAL | 2.68
83 | EMVRFLLEAGADQEHRTDEMHTAL | 2.51
84 | VMVRFLLEAGADQEHKTDEMHTAL | 2.12
85 | DMVRFLLEAGADQEHKTDEMHTAL | 2.82
86 | SMVRFLLEAGADQEHKTDEMHTAL | 3.41
87 | LMVRFLLEAGADQEHKTDEMHTAL | 2.16
88 | GMVRFLLEAGADQEHKTDEMHTAL | 3.41
89 | EMVRFLLEAGADQEHKTDEMSTAL | 3.4
90 | EMVRFLLEAGADQEHKTDEMMTAL | 3.25
91 | EMVRFLLEAGADQEHKTDEMNTAL | 3.05
92 | EMVRFLLEAGADQEHKTDEMGTAL | 3.1
93 | EMVRFLLEAGADQEHKTDEMCTAL | 3.21
94 | EMVRFLLEAGADQEHKTDEMVTAL | 2.34
